Where a chain is given by its changes, count along the chain named.

One experiment concerns the target T1, ADAMTS13 (human, UniProt Q76LX8 75-1427).
T1 construct: ADAMTS13, recombinant; holds TSP2-4 (detected with an anti-ADAMTS13 TSP2-4 polyclonal antibody); The introduction says the short propeptide is removed before secretion; also called recombinant ADAMTS13
T1 sequence (looked up): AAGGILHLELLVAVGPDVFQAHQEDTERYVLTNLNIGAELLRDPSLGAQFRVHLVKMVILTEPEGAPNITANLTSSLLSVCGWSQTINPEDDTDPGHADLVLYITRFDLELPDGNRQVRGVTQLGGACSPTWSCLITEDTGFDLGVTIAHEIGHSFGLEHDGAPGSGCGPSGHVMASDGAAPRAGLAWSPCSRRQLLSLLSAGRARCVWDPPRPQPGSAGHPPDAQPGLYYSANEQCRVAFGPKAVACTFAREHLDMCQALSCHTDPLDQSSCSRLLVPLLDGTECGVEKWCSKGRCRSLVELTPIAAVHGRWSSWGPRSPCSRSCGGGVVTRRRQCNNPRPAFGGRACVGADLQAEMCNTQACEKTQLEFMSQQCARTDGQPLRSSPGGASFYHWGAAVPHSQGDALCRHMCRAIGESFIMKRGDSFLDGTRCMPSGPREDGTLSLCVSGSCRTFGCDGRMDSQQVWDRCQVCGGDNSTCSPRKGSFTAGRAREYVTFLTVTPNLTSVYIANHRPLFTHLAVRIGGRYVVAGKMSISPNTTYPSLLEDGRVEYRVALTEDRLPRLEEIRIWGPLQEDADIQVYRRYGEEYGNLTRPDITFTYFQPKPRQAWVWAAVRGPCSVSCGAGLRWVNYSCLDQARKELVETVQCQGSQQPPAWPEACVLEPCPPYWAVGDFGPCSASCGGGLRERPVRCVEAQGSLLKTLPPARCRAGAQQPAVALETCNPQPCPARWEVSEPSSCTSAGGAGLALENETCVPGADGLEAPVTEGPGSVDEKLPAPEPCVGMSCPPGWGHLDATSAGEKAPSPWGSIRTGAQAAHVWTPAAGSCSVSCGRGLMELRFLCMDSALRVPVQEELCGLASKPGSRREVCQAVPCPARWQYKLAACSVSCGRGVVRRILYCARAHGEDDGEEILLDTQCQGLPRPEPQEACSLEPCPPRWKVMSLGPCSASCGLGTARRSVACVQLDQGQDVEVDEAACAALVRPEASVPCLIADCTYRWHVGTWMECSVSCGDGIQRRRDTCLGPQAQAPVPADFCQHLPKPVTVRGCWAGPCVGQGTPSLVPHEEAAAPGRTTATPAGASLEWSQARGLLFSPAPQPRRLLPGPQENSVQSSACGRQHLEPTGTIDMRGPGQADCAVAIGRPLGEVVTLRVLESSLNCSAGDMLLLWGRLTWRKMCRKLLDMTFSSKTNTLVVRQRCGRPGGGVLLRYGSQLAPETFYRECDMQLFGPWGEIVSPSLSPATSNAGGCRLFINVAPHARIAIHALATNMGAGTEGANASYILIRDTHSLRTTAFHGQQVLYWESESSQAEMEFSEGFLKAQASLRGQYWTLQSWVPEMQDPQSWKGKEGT
In words: ELISA; plate binding: 100 nM VWF96 or variant adsorbed on 96-well plates (50 mM sodium bicarbonate pH 9.6, overnight, 4 °C); 0-600 nM ADAMTS13 in PBS/1% BSA/80 mM EDTA, room temperature, 1.5 h (legend: 1 h); detected with biotinylated anti-ADAMTS13 TSP2-4 polyclonal antibody; one-site fit; apparent KD. To be noted: one partner purified. A general note: An ELISA detects its analyte on a solid surface through an enzyme-linked reagent.

The target of a further experiment is T2, ADAMTS13 MDTCS(E225Q) (human, UniProt Q76LX8 78-682, E225Q, N-linked glycans at Asn142, Asn146, Asn552, Asn579, Asn614, Asn667 and an O-linked glycan on Ser399 (seen in the structure)).
T2 construct: Drosophila BiP signal cleaved off to give the native N terminus Gly78; Vector pMT-BiP-PURO; also called MDTCS(E225Q) active-site mutant; not shown: 6xHis, C-terminal, kept
T2 sequence (looked up): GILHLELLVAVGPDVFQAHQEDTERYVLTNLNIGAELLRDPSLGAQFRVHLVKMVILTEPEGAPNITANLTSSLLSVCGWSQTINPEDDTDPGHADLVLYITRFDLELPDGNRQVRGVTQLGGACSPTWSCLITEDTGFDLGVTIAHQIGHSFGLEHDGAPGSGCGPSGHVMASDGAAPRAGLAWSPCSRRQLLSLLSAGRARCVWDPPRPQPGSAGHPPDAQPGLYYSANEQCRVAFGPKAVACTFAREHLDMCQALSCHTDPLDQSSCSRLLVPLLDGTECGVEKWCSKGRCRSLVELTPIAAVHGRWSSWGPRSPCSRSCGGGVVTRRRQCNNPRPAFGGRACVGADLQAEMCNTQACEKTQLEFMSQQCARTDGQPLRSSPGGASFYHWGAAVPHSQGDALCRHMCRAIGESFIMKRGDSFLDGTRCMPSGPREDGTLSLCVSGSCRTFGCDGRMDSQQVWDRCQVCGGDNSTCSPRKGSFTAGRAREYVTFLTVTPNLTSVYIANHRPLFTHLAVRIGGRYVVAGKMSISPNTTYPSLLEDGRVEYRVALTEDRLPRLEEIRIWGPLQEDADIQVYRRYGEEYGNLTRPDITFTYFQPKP
The experiment in a line: ITC; 27 μM MDTCS(E225Q) in the cell, injections of 279 μM tag-free VWF73; 20 mM HEPES pH 7.5, 150 mM NaCl, 5 mM CaCl2; 25 °C; mean of four experiments. The settings on record: both partners purified.

In a further experiment the target is VWF96-Spacer (human, UniProt P04275 1573-1668, L1664T | V1665N | L1666Q). In words: ELISA.
In a further experiment the target is VWF96-MP (human, UniProt P04275 1573-1668, L1603N). In words: ELISA.

B1: VWF96 (VWF A2 domain fragment Gly1573-Arg1668 with N-terminal 6xHis-SUMO tag and C-terminal HSV-6xHis tag) (domain or fragment)
chain: GNRTNTGLALRYLSDHSFLVSQGDREQAPNLVYMVTGNPASDEIKRLPGDIQVVPIGVGPNANVQELERIGWPNAPILIQDFETLPREAPDLVLQR
notes: von Willebrand factor, A2 domain fragment, residues Gly1573-Arg1668 (96 amino acids); SUMO tag is a derivative of yeast Smt3 (13 kDa, Invitrogen); Vector pET25b(+); About 32 kDa with tags; also called wild-type VWF96; source: E. coli BL21 (DE3), purified (Ni2+ HiTrap Chelating HP, Capto Q ImpRes); not shown: 6xHis-SUMO, N-terminal, kept; HSV-6xHis, C-terminal, kept
Take B1: the Kd with ADAMTS13 was found to be 40 nM.

B2: VWF96-Dis (domain or fragment, human, UniProt P04275 1573-1668, looked up)
chain: B1 chain with D42A, I44Q, K45E, R46E, D50T
notes: Variant of the VWF96 vector; source: E. coli BL21 (DE3), purified (Ni2+ HiTrap Chelating HP, Capto Q ImpRes); not shown: 6xHis-SUMO, N-terminal, kept; HSV-6xHis, C-terminal, kept
As for B2, the Kd with ADAMTS13 is 615 nM.

B3: VWF96-Cys (domain or fragment, human, UniProt P04275 1573-1668, looked up)
chain: B1 chain with I70Q, W72Y, A75S, I77Q, L78Q, I79Q
notes: as for B2
With B3, the Kd with ADAMTS13 amounted to 632 nM.

B4: VWF73 (tag-free VWF A2 domain fragment Asp1596-Arg1668) (domain or fragment)
chain: DREQAPNLVYMVTGNPASDEIKRLPGDIQVVPIGVGPNANVQELERIGWPNAPILIQDFETLPREAPDLVLQR
notes: von Willebrand factor, human, A2 domain fragment, residues Asp1596-Arg1668 (73 amino acids); Vector pET-SUMO; also called tag-free VWF73; source: E. coli One Shot BL21 Star (DE3), purified as VWF96; His-SUMO tag removed with SUMO protease-1, passed over Ni2+ column; not shown: 6xHis-SUMO, N-terminal, cleaved
On to B4, for which the Kd with ADAMTS13 MDTCS(E225Q) worked out at 450 nM.

B5: VWF87(ΔSpacer) (domain or fragment)
chain: GNRTNTGLALRYLSDHSFLVSQGDREQAPNLVYMVTGNPASDEIKRLPGDIQVVPIGVGPNANVQELERIGWPNAPILIQDFETLPR
notes: von Willebrand factor, A2 domain fragment: VWF96 (Gly1573-Arg1668) with residues Glu1660-Arg1668 deleted, 87 amino acids; Variant of the VWF96 vector; the C-terminal HSV-6xHis tag follows residue 1659; source: E. coli BL21 (DE3), purified (Ni2+ HiTrap Chelating HP, Capto Q ImpRes); not shown: 6xHis-SUMO, N-terminal, kept; HSV-6xHis, C-terminal, kept
Take B5: in the experiment with ADAMTS13, the Kd was 475 nM.

B6: ADAMTS13 (enzyme)
chain: T1 sequence (looked up)
As for B6, the values for the Kd with VWF96-Spacer and with VWF96-MP were 241 nM and 65 nM, respectively.

For the origin of these results see paper PMC6706451, “Crystal structure and substrate-induced activation of ADAMTS13” (Nature Communications, 2019).
